Assay results from patent US20130036520A1.

How the values were obtained:
[1] = target: Cry1Ab receptor sites located in BBMV's (brush border membrane vesicles) from Ostrinia nubilalis larval midgut (Ostrinia nubilalis); assay: homologous radioligand competition, unlabeled Cry1Ab against 0.5 nM 125I Cry1Ab on O. nubilalis BBMVs
[2] = target: Cry1Ab receptor sites located in BBMV's (brush border membrane vesicles) from Ostrinia nubilalis larval midgut (Ostrinia nubilalis); assay: heterologous radioligand competition, unlabeled DIG-3 against 0.5 nM 125I Cry1Ab on O. nubilalis BBMVs

Row | Substance | IC50 [1] [nM] | percent displacement of 125I Cry1Ab binding at 300 nM DIG-3 [2] [%]
1 | Cry1Ab toxin, trypsin activated, non-radioactive (unlabeled homologous competitor) (from UniProt P0A370 29-607) | 0.5 | –
2 | DIG-3 toxin, trypsin activated (unlabeled heterologous competitor) | – | 25
